Source: the supplement of paper PMC10567573

B1: DFFB (parent)
chain: TLVEAIKEQDGREVDWEYFYGLLF
B2: C10orf62 (parent)
chain: RALEEVEMKLQKNFLTQRENTIAG
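Also: lentivirally expressed fusions sorted by FACS into six bins by GFP to DsRed ratio, PSI derived from sequencing read proportions per bin multiplied by bin number.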

Variants of: B1
Experiment: protein stability index of a GFP-peptide fusion (GPS, HEK-293T) (PSI 1-6); higher = more stable
Details: c terminus: a fixed tail appended
With TLVEAIKEQDGREVDWEYFYGWLF [L22W] the protein stability index was 1.1. TLVEAIKEQDGREVDWEYFYGRLF [L22R] gave a protein stability index of 1.8. Variant TLVEAIKEQDGHEVDWEYFYGLLF [R12H] has a protein stability index of 2.2. With TLVEAIKEQDGMEVDWEYFYGLLF [R12M] the protein stability index was 2.18. Work on TLVEAIKEQDGREVDWEYFSGLLF [Y20S] yielded a protein stability index of 1.33. With TLCEAIKEQDGREVDWEYFYGLLF [V3C] the protein stability index was 1.94. TLMEAIKEQDGREVDWEYFYGLLF [V3M] gave a protein stability index of 2.28. TLVEAIMEQDGREVDWEYFYGLLF [K7M] showed a protein stability index of 1.72. With TLVEAIKENDGREVDWEYFYGLLF [Q9N] the protein stability index was 1.57. For TLVEAIKESDGREVDWEYFYGLLF [Q9S], the protein stability index was 1.66. With TLVEAIKEQDGREVDVEYFYGLLF [W16V] the protein stability index was 2.61. TLVEAIKEQDGREVDDEYFYGLLF [W16D] gave a protein stability index of 2.53. For TLVEAIKEQDGRELDWEYFYGLLF [V14L], the protein stability index was 2.28. Work on TLVEAIKEQDGREWDWEYFYGLLF [V14W] yielded a protein stability index of 2.12. TLVEAIKEQDGREVDWEYFYGLLY [F24Y] showed a protein stability index of 2.31. TLVEAIKEQDGREVDWEFFYGLLF [Y18F] showed a protein stability index of 1.76. TLVESIKEQDGREVDWEYFYGLLF [A5S] gave a protein stability index of 2.15. TLVEKIKEQDGREVDWEYFYGLLF [A5K] gave a protein stability index of 1.89. TLVEAIKEQDGREVDWEYFYGLVF [L23V] gave a protein stability index of 1.92. TLVEAIKEQDGREVDWEYFYGLAF [L23A] gave a protein stability index of 1.86. In the case of TLVEAIKEQDGREVDWEYFYGLDF [L23D], the protein stability index is reported as 2. TCVEAIKEQDGREVDWEYFYGLLF [L2C] showed a protein stability index of 2.16. In the case of TLVDAIKEQDGREVDWEYFYGLLF [E4D], the protein stability index is reported as 1.68. TLVEAIKEQDGREVDWEYQYGLLF [F19Q] gave a protein stability index of 3.44. In the case of TLVEAVKEQDGREVDWEYFYGLLF [I6V], the protein stability index is reported as 2.25.

Variants of: B2
Experiment: as above
Details: c terminus: a fixed tail appended
With RALEEVEMKLQKNFLTQRINTIAG [E19I] the protein stability index was 2.04. Work on RALEEVEMKLQKNFLTQRWNTIAG [E19W] yielded a protein stability index of 2.05. Variant RALEEVEMKLQKNFLTQRYNTIAG [E19Y] has a protein stability index of 1.81. RALEEVEMKLQKNFLTQRMNTIAG [E19M] showed a protein stability index of 2.65. RALEEVEMKLQKNFLTQRFNTIAG [E19F] gave a protein stability index of 1.86. For RALEEVEMKLQKNFLTQRRNTIAG [E19R], the protein stability index was 3.12. RALEEVEMKLQKNFLTQRHNTIAG [E19H] showed a protein stability index of 3.13. With RALEEVEMKLQKNFLTQRSNTIAG [E19S] the protein stability index was 3.37. For RALEEVEMKLQKNFLTQRVNTIAG [E19V], the protein stability index was 2.3. RALEEVEMKLQKNFLTQRDNTIAG [E19D] showed a protein stability index of 3.78. RALEEVEMKLQKNFLTQRGNTIAG [E19G] showed a protein stability index of 3.31. For RALEEVEMKLQKNFLTQRCNTIAG [E19C], the protein stability index was 2.33. RALEEVEMKLQKNFLTQRTNTIAG [E19T] showed a protein stability index of 2.92. For RALEEVEMKLQKNFLTQRQNTIAG [E19Q], the protein stability index was 2.84. Variant RALEEVEMKLQKNFLTQRKNTIAG [E19K] has a protein stability index of 3.53. RALEEVEMKLQKNFLTQRNNTIAG [E19N] gave a protein stability index of 3.2. In the case of RALEEVEMKLQKNFLTQRLNTIAG [E19L], the protein stability index is reported as 2.04. With RALEEVEMKLQKNFLTQRPNTIAG [E19P] the protein stability index was 2.85. Variant RALEEVEMKLQKNFLTQRANTIAG [E19A] has a protein stability index of 3.82. With RALEEVEMKLQKNFLTARENTIAG [Q17A] the protein stability index was 3.42. For RALEEVEMKLQKNFLTIRENTIAG [Q17I], the protein stability index was 2.89. RALEEVEMKLQKNFLTTRENTIAG [Q17T] gave a protein stability index of 3.2. With RALEEVEMKLQKNFLTVRENTIAG [Q17V] the protein stability index was 3.06. Variant RALEEVEMKLQKNFLTMRENTIAG [Q17M] has a protein stability index of 3.56. Variant RALEEVEMKLQKNFLTDRENTIAG [Q17D] has a protein stability index of 4.13. RALEEVEMKLQKNFLTHRENTIAG [Q17H] gave a protein stability index of 3.31. Work on RALEEVEMKLQKNFLTPRENTIAG [Q17P] yielded a protein stability index of 3.69. For RALEEVEMKLQKNFLTNRENTIAG [Q17N], the protein stability index was 3.89. For RALEEVEMKLQKNFLTWRENTIAG [Q17W], the protein stability index was 2.92. Work on RALEEVEMKLQKNFLTKRENTIAG [Q17K] yielded a protein stability index of 3.5. Variant RALEEVEMKLQKNFLTLRENTIAG [Q17L] has a protein stability index of 3.03. Work on RALEEVEMKLQKNFLTCRENTIAG [Q17C] yielded a protein stability index of 3.21. Work on RALEEVEMKLQKNFLTERENTIAG [Q17E] yielded a protein stability index of 3.96. Work on RALEEVEMKLQKNFLTRRENTIAG [Q17R] yielded a protein stability index of 2.74. RALEEVEMKLQKNFLTFRENTIAG [Q17F] gave a protein stability index of 2.13. Work on RALEEVEMKLQKNFLTSRENTIAG [Q17S] yielded a protein stability index of 3.85. Variant RALEEVEMKLQKNFLTYRENTIAG [Q17Y] has a protein stability index of 2.48. RALEEVEMKLQKNFLTGRENTIAG [Q17G] gave a protein stability index of 3.73. For RALEEVEMKLQKNFLTQRENTIAL [G24L], the protein stability index was 2.65. Work on RALEEVEMKLQKNFLTQRENTIAE [G24E] yielded a protein stability index of 4.04. Work on RALEEVEMKLQKNFLTQRENTIAS [G24S] yielded a protein stability index of 3.43. Variant RALEEVEMKLQKNFLTQRENTIAA [G24A] has a protein stability index of 3.4. RALEEVEMKLQKNFLTQRENTIAW [G24W] gave a protein stability index of 3.48. Work on RALEEVEMKLQKNFLTQRENTIAP [G24P] yielded a protein stability index of 3.71. For RALEEVEMKLQKNFLTQRENTIAH [G24H], the protein stability index was 3.07. Work on RALEEVEMKLQKNFLTQRENTIAV [G24V] yielded a protein stability index of 2.85. RALEEVEMKLQKNFLTQRENTIAY [G24Y] showed a protein stability index of 2.18. RALEEVEMKLQKNFLTQRENTIAI [G24I] gave a protein stability index of 2.31. For RALEEVEMKLQKNFLTQRENTIAC [G24C], the protein stability index was 3.23. In the case of RALEEVEMKLQKNFLTQRENTIAT [G24T], the protein stability index is reported as 3.76. With RALEEVEMKLQKNFLTQRENTIAN [G24N] the protein stability index was 3.45. RALEEVEMKLQKNFLTQRENTIAK [G24K] showed a protein stability index of 4.19. For RALEEVEMKLQKNFLTQRENTIAD [G24D], the protein stability index was 4.37. Variant RALEEVEMKLQKNFLTQRENTIAR [G24R] has a protein stability index of 3.5. In the case of RALEEVEMKLQKNFLTQRENTIAQ [G24Q], the protein stability index is reported as 3.6. RALEEVEMKLQKNFLTQRENTIAF [G24F] showed a protein stability index of 2.37. For RALEEVEMKLQKNFLTQRENTIAM [G24M], the protein stability index was 3.08. Variant RALEEVEMKLQKNFLSQRENTIAG [T16S] has a protein stability index of 3.64. RALEEVEMKLQKNFLPQRENTIAG [T16P] gave a protein stability index of 3.09. For RALEEVEMKLQKNFLWQRENTIAG [T16W], the protein stability index was 2.97. With RALEEVEMKLQKNFLLQRENTIAG [T16L] the protein stability index was 2.79. With RALEEVEMKLQKNFLVQRENTIAG [T16V] the protein stability index was 3.16. Variant RALEEVEMKLQKNFLRQRENTIAG [T16R] has a protein stability index of 2.81. With RALEEVEMKLQKNFLIQRENTIAG [T16I] the protein stability index was 3.06. RALEEVEMKLQKNFLYQRENTIAG [T16Y] showed a protein stability index of 2.74. For RALEEVEMKLQKNFLQQRENTIAG [T16Q], the protein stability index was 3.45. In the case of RALEEVEMKLQKNFLMQRENTIAG [T16M], the protein stability index is reported as 3.23. In the case of RALEEVEMKLQKNFLKQRENTIAG [T16K], the protein stability index is reported as 3.54. For RALEEVEMKLQKNFLNQRENTIAG [T16N], the protein stability index was 2.83.
